# Molecular target: poly-C3-GFOGMR (disulfide-linked polymer of the triple-helical peptide C3-GFOGMR)
# Test: ELISA
substance,measurement,value
GST-α2I domain E318W mutant (from UniProt P17301 169-366) (domain or fragment),affinity relative to the T221A mutant,0.0033 fold

# Reference: publication doi:10.1101/2025.07.28.667101
